Data reported in patent US20250340655A1, “EPHA2-TARGETING ANTIBODIES AND THEIR APPLICATIONS IN CANCER TREATMENT” (TAIPEI MEDICAL UNIVERSITY, priority 2022, published 2025).

Key:
[1] = system: EphA2pep_P1, EphA2pep_P2, EphA2pep_PIP2 synthetic peptides; test: Peptide ELISA for epitope definition; assay type: binding
From the text: (§1) We used peptide enzyme-linked immunosorbent assay (ELISA) to identify the designed epitope on EphA2; the BSA-conjugated peptides EphA2pep_P1 (BSA-[…]) and EphA2pep_P2 (BSA-[…]) each represent the two segments of the linear epitope designed on EphA2. EphA2pep_PIP2 (BSA-[…]) represents the two linear epitope sequences connected by a linker. These peptides were synthesized and conjugated with BSA (Kelowna International Scientific). The BSA-conjugated peptides were individually coated on a 96-well microplate at 4° C. overnight. After the wells were blocked with 3% BSA, IgG hSD5 was added and incubated. Next, an HRP-conjugated anti-HA tag antibody (Cell Signaling Technology) was used to detect bound scFv. Finally, the TMB substrate was added for development, and the reaction was stopped by adding 1 N HCl. Absorbance was measured by determining the OD at 450 nm. A dot blot assay was used to detect the binding of IgG hSD5 to the synthesized peptides; […] of individual peptides (1 mg/mL; in triplicate) were dropped on the NC membrane and maintained at RT for complete absorption. Blocking with 3% BSA was performed at RT for 1 h. Then, IgG hSD5 (10 μg/mL) was added, and the reaction was allowed to proceed for 1 h at RT. After the membrane was washed, the HRP-conjugated anti-HA tag antibody was added, and the reaction was allowed to proceed for 1 h at RT. Lastly, DAB was used to initiate the coloration reaction.
To determine whether the antibody hSD5 can recognize two antigen fragments simultaneously, peptide synthesis of the two antigen fragments was performed to test the binding reaction of antibody IgG hSD5. The ELISA was used to test the binding reactivity of the antibody hSD5 to synthetic peptides. The two short peptides located on the designed activation site of EphA2 are EphA2pep_P1 and EphA2pep_P2, respectively. The long peptide formed by linking the two short peptides is EphA2pep_PIP2. NCIpep and NC2pep are two irrelevant peptides as the negative control. EphA2 ECD is a recombinant EphA2 extracellular domain protein.

HCT116, SW480 and SW460 = test: MTS growth inhibition, colon cancer cells; assay type: cell-based; details: 3 days (FIG. 18C)
Method: The growth inhibitory effect of hSD5-ADC on the three strains of colon cancer cells were tested under different concentrations. At indicated concentrations interacted with the cancer cells for 3 days, and the effects on the growth of cancer cells were observed by MTS assay. (FIG. 18C)

[2] = biological target: T1, endogenous EphA2 molecules on the four brain tumor cell lines (GBM8901, LN229, T98G and U87MG) (Homo sapiens, UniProt P29317); test: Flow cytometry binding on brain tumor cell lines; details: flow cytometry (FIG. 16B)
T1 construct: identifying endogenous EphA2 molecules on the four strains of brain tumor cell lines; endogenous in cells; host or cells: GBM8901, LN229, T98G, U87MG
T1 sequence (P29317 24-976, stated change not applied): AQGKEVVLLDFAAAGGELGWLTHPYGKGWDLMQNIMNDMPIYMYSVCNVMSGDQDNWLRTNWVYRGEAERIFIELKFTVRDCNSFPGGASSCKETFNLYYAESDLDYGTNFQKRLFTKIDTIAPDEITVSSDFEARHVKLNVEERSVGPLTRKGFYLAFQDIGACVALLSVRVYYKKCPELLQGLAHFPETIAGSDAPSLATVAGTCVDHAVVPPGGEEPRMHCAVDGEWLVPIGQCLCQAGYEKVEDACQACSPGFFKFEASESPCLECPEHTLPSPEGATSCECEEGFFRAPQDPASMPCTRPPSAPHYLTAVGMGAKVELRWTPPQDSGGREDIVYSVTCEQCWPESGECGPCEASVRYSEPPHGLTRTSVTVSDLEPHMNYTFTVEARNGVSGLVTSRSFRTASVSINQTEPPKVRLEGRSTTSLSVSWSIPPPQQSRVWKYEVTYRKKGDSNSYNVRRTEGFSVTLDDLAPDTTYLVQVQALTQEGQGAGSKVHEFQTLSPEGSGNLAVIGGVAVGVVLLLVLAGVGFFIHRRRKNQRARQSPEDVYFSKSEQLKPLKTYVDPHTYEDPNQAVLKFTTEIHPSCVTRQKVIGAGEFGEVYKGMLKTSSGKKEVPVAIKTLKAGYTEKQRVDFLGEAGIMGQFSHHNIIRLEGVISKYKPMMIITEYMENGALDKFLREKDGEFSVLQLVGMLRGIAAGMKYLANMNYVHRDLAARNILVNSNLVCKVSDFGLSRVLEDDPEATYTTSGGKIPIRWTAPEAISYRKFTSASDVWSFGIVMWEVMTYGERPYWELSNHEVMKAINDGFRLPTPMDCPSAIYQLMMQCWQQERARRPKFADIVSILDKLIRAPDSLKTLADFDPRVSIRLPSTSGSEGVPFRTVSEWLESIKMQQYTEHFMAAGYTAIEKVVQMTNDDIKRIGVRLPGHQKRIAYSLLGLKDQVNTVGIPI
From the text: Flow cytometry was used to analyze the response of hSD5 IgG in identifying endogenous EphA2 molecules on the four strains of brain tumor cell lines. PC represents the use of commercial Ab to determine the expression of EphA2 on cancer cells; NC represents the control group with irreverent of the isotype IgG1 antibody. (FIG. 16B)
The hSD5 was used to identify endogenous EphA2 molecules on the four brain tumor cell lines by flow cytometry analysis. PC uses a commercial anti-EphA2 antibody, and NC is the control group with irreverent of the isotype IgG1.

SNU-16, N87 and MKN-45 = test: MTS growth inhibition, gastric cancer cells; assay type: cell-based; details: 3 days (FIG. 15B)
Method: The growth inhibitory effect of hSD5-ADC on the three strains of gastric cancer cells were tested under different concentrations. At indicated concentrations interacted with the cancer cells for 3 days, and the effects on the growth of cancer cells were observed by MTS assay. […] (FIG. 15B)

BxPc-3 tumor = BxPc-3 tumor xenograft model (IgG hSD5, gemcitabine); assay type: in vivo, mouse
Method: The freshly prepared BxPc-3 and Mia PaCa-2 cancer cells were harvested during the log growth phase and resuspended in PBS for tumor implantation. Each NOD/SCID mouse was subcutaneously inoculated with cancer cells (5×10^6 to BxPc-3 and 1×10^7 to Mia PaCa-2) for tumor formation. The tumor size was measured twice weekly, and the volume was calculated as follows: V=0.5lw^2, where l=the length and w=the width. When the tumor size was approximately 100 mm3, animals were divided into groups that received (a) vehicle alone through intravenous injection (i.v.) once weekly (qwk), (b) control human IgG1 at 20 mg/kg through i.v. qwk, (c) and (d) hSD5 IgG1 at 2 or 20 mg/kg through i.v. qwk, (e) and (f) gemcitabine at 20 or 100 mg/kg through i.v. twice weekly (biw), or (g) hSD5 IgG1 at 2 mg/kg through i.v. qwk combined with gemcitabine at 20 mg/kg through i.v. biw. At the end of the experiment, the antitumor effects were quantified by dividing the tumor volumes in the treatment groups by those in the control groups and multiplying them by 100 to represent tumor growth inhibition (TGI; %). The mice were also examined frequently for overt signs of adverse drug-related side effects.
The pancreatic tissue microarray slide (US Biomax, PA483e) was used to detect and analyze the EphA2 expression of clinical samples. In the xenograft animal model, the excised BxPc-3 and Mia PaCa-2 tumors were fixed in formalin, embedded in paraffin, and sliced for immunohistochemical staining (IHC). Commercial antibodies (Cell signaling, Dako; Agilent Technologies; and Abcam) were used for staining the EphA2 molecule, cell proliferation marker Ki-67, and apoptosis marker cleaved caspase 3. The effects of staining were observed using a Zeiss Axioskop-2 microscope (Carl Zeiss).
Administration of IgG hSD5 (20 mg/kg, iv, qwk, indicated as blue filled inverted triangles) and Gemcitabine (100 mg/kg, iv, biw, indicated as orange filled squares) were used to test the inhibition effect on BxPc-3 tumor growth, n=6, TGI denotes Tumor growth inhibition. (FIG. 7A) Administration of IgG hSD5 (2 mg/kg, iv, qwk, indicated by solid black triangles), Gemcitabine (20 mg/kg, iv, biw, indicated by black open squares), and the experimental group that combined IgG and Gemcitabine treatment simultaneously (indicated by solid red diamonds) were used to teat the growth inhibitory effect of BxPc-3 on the tumor. (FIG. 7B) During treatments, the weight changes of each mouse group were tracked. (FIG. 7C) The expression levels of EphA2, cell proliferation marker Ki67, and apoptosis-related marker cleaved caspase3 in the excised tumor groups were analyzed by IHC staining. (FIG. 7D)

[3] = system: EphA2pep_P1 and EphA2pep_P2 synthetic peptides; test: Dot blot assay with synthetic peptides; assay type: binding; details: dot blot (FIG. 9B)
From the text: as §1, with “Lastly, DAB was used to initiate the coloration reaction.” left out

B1: IgG hSD5: complete humanized anti-EphA2 IgG (IgG1) of hSD5 (antibody, V domains shown)
VH: QVQLVESGGGLVQPGGSLRLSCAASGFTFSDYGMGWVRQAPGKGLEWVAGISAAGSFTPYGAAVKGRFTISRDNSKNTVYLQMNSLRAEDTAVYYCARIPSGYRAGEIYTWGQGTLVTVSS
VL: LTQPPSVSVSPGQTVRITCSGSSGSYGWYQQKSPGQAPVTLIYDNDKRPSGIPERFSGSSSGSTSTLTISGVQAEDEADYYCGSADSSTYVGMFGGGTKLTVL
[1]; peptide ELISA (FIG. 9A)
  binding to long peptide EphA2pep_PIP2: exhibited a binding response
  binding to short peptides EphA2pep_P1 and EphA2pep_P2: individually recognized
  interaction with EphA2pep_P1 compared with EphA2pep_P2: stronger
[1]; peptide ELISA, NC peptides (FIG. 9A)
  cross-binding to two irrelevant peptides: did not exhibit a cross-binding reaction
HCT116, SW480 and SW460
  growth inhibitory response of colon cancer cells: does not provide ideal inhibition effect
[2]
  binding response to EphA2 molecules on brain cancer cells: significant binding response
SNU-16, N87 and MKN-45
  growth inhibitory response of gastric cancer cells: does not provide ideal inhibition effect
BxPc-3 tumor; BxPc-3 xenograft mice
  effect on growth of tumors in vivo: significantly inhibited the growth of tumors
BxPc-3 tumor; BxPc-3 xenograft, 20 mg/kg, iv, qwk
  TGI (tumor growth inhibition): 53.1%
BxPc-3 tumor; IHC of removed BxPc-3 tumors, compared with control IgG group (FIG. 7D)
  expression levels of EphA2 and Ki-67 in the tumors: significantly decreased
[3]
  binding reaction with EphA2pep_P1 compared with EphA2pep_P2: stronger
  recognition of EphA2pep_P1 and EphA2pep_P2: can recognize both the antigen fragments
